# Measured values taken from publication PMC9834240, “Senescent cells perturb intestinal stem cell differentiation through Ptk7 induced noncanonical Wnt and YAP signaling” (Nature Communications, 2023).
# B1: sPtk7: soluble/shed N-terminal extracellular domain of Ptk7 (protein)
# chain: AIVFIKQPSSQDALQGRRALLRCEVEAPGPVHVYWLLDGAPVQDTERRFAQGSSLSFAAVDRLQDSGTFQCVARDDVTGEEARSANASFNIKWIEAGPVVLKHPASEAEIQPQTQVTLRCHIDGHPRPTYQWFRDGTPLSDGQSNHTVSSKERNLTLRPAGPEHSGLYSCCAHSAFGQACSSQNFTLSIADESFARVVLAPQDVVVARYEEAMFHCQFSAQPPPSLQWLFEDETPITNRSRPPHLRRATVFANGSLLLTQVRPRNAGIYRCIGQGQRGPPIILEATLHLAEIEDMPLFEPRVFTAGSEERVTCLPPKGLPEPSVWWEHAGVRLPTHGRVYQKGHELVLANIAESDAGVYTCHAANLAGQRRQDVNITVATVPSWLKKPQDSQLEEGKPGYLDCLTQATPKPTVVWYRNQMLISEDSRFEVFKNGTLRINSVEVYDGTWYRCMSSTPAGSIEAQARVQVLEKLKFTPPPQPQQCMEFDKEATVPCSATGREKPTIKWERADGSSLPEWVTDNAGTLHFARVTRDDAGNYTCIASNGPQGQIRAHVQLTVAVFITFKVEPERTTVYQGHTALLQCEAQGDPKPLIQWKGKDRILDPTKLGPRMHIFQNGSLVIHDVAPEDSGRYTCIAGNSCNIKHTEAPLYVVDKPVPEESEGPGSPPPYKMIQT
# modifications: left off: Fc (human IgG1, from the anti-hIgG1-Fc detection antibody), end not stated, kept
# notes: soluble/shed N-terminal extracellular domain of Ptk7
# Legend:
# [1] = system: soluble Ptk7 (sPtk7) shed by MEFs; experiment: Western blot for sPtk7 in conditioned media; format: cell-based, mouse
# Procedure: Twenty-four hours before collecting conditioned media (CM), MEFs were washed with serum-free DMEM twice, and serum-free DMEM was added. After 24 h in serum-free DMEM, this CM was collected, filtered using Steriflip filters (Millipore, #SE1M179M6) to remove cell debris, and concentrated using centrifugal filter units (Amicon ultra-15 centricon; Millipore, # UFC900324). To collect CM without sPtk7, TAPI-1 (Millipore, #59053) or GM6001 (Sigma-Aldrich, #364206) containing serum-free DMEM instead of serum-free DMEM was added to the cells. To inhibit Wnt secretion, IWP-L6 (Sigma-Aldrich, #504819) containing serum-free DMEM instead of serum-free DMEM was added to the cells. CM was filtered and dialyzed for 24–48 h to remove the inhibitors before concentration. Concentrated CM from equal numbers of MEFs was mixed with IntestiCult Organoid Growth Medium (Stem Cell Technologies, #06005) and added to the organoid cultures.
# Conditioned media corresponding to the same number of cells were loaded for SDS–PAGE. Total cell and tissue lysates of mouse fibroblasts and intestine were prepared using RIPA lysis buffer (Thermo Fisher Scientific, #89900) with protease/phosphatase inhibitor (Thermo Fisher Scientific, #1861281). Protein concentration was measured with BCA protein assay kit (Thermo Fisher Scientific, #23227), and equal amount of proteins were loaded for SDS–PAGE. […]
# MEFs = experiment: SA-β-Gal staining; format: cell-based, mouse; conditions: X-ray irradiation or doxorubicin (250 nM, 3 days)
# Procedure: Staining was performed with the Senescence Detection Kit (Abcam, #ab65351) following the manufacturer’s protocol. Briefly, MEFs were fixed for 15 min with 1× fixation solution, washed with PBS, then stained overnight at 37 °C in 1× staining solution. Brightfield images were captured on the Zeiss Axio Imager M2 microscope.
# biotinylated Wnt3a = experiment: ELISA binding to Wnt3a; parameters: species or system mouse; conditions: PTK7 with FZD7 CRD
# Procedure: (§1) Proteins used in ELISAs were obtained from R&D Systems: PTK7-Fc (R&D Systems, #9799-TK), biotinylated Wnt3a (R&D Systems, #BT1324), biotinylated Wnt5a (R&D Systems, #BT645). […] Assay plates (384 Maxisorp plates, Nunc, # 464718) were prepared by incubation overnight with 30 µl/well Neutravidin (2 µg/ml, Thermo Fisher Scientific, #31055) in PBS at 4 °C. Plates were emptied and incubated with 100 µl/well of blocking buffer (PBS, 2% bovine serum albumin, 0.01% NaN3) for 1 h at room temperature with shaking. Blocking buffer was aspirated and plates were washed 8x with 70 µl/well of PBS-T. In parallel, bio-Wnt3a or bio-Wnt5a were incubated in helper plates (384 well plates, Nunc; #264574) with a dilution series of PTK7-Fc or FZD7-His in the presence or absence of FZD7-His as a competitor in assay diluent (PBS + 0.5 % BSA + 15 ppm ProClin 300 (Sigma-Aldrich, #48914-U) for 1 h at 4 °C. Protein mixtures (25 µl/well) were transferred from helper plates to 3 wells of assay plates (technical triplicates), and incubated for 1 h at 4 °C. Assay plates were aspirated and washed 8× with 70 µl/well of PBS-T. Binding was detected by 25 µl/well of anti-hIgG1-Fc-HRP (0.2 µg/ml, Thermo Fisher Scientific, #A-10648) or anti-His-tag-HRP (0.2 µg/ml, Abcam, #ab1187) in assay diluent, incubated for 1 h at 4 °C. […] Absorbance at 450 nm was recorded with a plate reader. […]
# biotinylated Wnt5a = experiment: ELISA binding to Wnt5a; parameters: species or system human/mouse (hmWnt5a); conditions: Wnt5a versus Wnt3a
# Procedure: as §1
# [2] = system: cytosolic Ca2+ in mouse intestinal organoids; experiment: live Ca2+ imaging of mouse intestinal organoids (GCaMP6f/tdTomato: baselined area under curve, peak number, height, width); format: cell-based; conditions: live organoids expressing GCaMP6f
# Procedure: Z stacks were acquired every 10 s.
# Z-stack images were converted to mean intensity projections and, where required; background was subtracted using a rolling ball algorithm. Segmentation was conducted on a max-projection over-time of the GCaMP6f channel using Cellpose’s pre-trained “Cytoplasm” classifier. Mean intensity traces were measured in each ROI over the time course in both the GCaMP6f and TdTomato channels using scikit-image[138]. Ca^2+ oscillation patterns were calculated in an unsupervised, automated manner using MATLAB. Mean intensity traces were smoothed using a Savitzky-Golay filter and peaks were identified using the “findpeaks” algorithm from the MATLAB Signal Processing Toolbox. Graphs for GCaMP6f/tdTomato fluorescence ratio, peak numbers, peak height, peak width and baselined area under the curve were generated using Python matplotlib and seaborn packages. Statistical analysis was performed using Python SciPy and scikit-post-hoc packages.
Molecule,levels of sPtk7 in conditioned media [1],senescence (SA-β-gal) (MEFs),competition for binding to Wnt3a or Wnt5a (biotinylated Wnt3a),"binding to Wnt3a and Wnt5a, relative affinity (biotinylated Wnt5a)",effect on cytosolic Ca2+ levels and oscillations [2]
COc1cccc2c1C(=O)c1c(O)c3c(c(O)c1C2=O)C[C@@](O)(C(=O)CO)C[C@@H]3O[C@H]1C[C@H](N)[C@H](O)[C@H](C)O1 [doxorubicin],contained higher levels of sPtk7,confirmed senescence,–,–,–
B1,–,–,unaffected by a saturating amount of FZD7 CRD,bound Wnt5a with higher affinity,modulate cytosolic Ca^2+ oscillations
